# Numbered stars: 1 amine (or outer) side, 2 acyl side, 3 side chain; on linkers, the order of the positions; unused ones are H or OH. Bridge positions count the residues as written; N and C are the ends. Square brackets hold non-standard residues; d marks the D form. Side chains are listed from the residue outwards. Ends that are not written are not given here. * marks the point of attachment. C18 diacid = O=C(O)CCCCCCCCCCCCCCCCC(=O)*; γGlu = O=C(O)[C@H](CCC(=O)[*:2])N[*:1]; Aib = CC(C)(N)C(=O)O
# Assays:
# [1] = target: T1, human calcitonin receptor (human, UniProt P30988 25-474); experiment: cell-based or functional assay
# T1 sequence (looked up): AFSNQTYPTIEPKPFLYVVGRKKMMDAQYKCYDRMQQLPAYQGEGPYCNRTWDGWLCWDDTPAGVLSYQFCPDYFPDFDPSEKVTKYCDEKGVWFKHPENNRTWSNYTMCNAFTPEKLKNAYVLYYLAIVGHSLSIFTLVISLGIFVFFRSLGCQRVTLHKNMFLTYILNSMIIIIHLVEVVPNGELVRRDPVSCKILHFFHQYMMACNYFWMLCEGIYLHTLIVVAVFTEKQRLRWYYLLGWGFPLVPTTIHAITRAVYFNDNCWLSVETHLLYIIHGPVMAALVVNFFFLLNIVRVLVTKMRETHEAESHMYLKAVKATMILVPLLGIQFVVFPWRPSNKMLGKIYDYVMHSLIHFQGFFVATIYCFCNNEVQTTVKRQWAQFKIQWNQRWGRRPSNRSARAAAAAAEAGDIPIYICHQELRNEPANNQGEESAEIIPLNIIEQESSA
# [2] = target: T2, human amylin receptor (calcitonin receptor co-expressed with receptor activity modifying protein, RAMP3) (human, UniProt P30988 25-474; O60896 24-148); experiment: cell-based or functional assay
# T2 sequence (looked up) 1: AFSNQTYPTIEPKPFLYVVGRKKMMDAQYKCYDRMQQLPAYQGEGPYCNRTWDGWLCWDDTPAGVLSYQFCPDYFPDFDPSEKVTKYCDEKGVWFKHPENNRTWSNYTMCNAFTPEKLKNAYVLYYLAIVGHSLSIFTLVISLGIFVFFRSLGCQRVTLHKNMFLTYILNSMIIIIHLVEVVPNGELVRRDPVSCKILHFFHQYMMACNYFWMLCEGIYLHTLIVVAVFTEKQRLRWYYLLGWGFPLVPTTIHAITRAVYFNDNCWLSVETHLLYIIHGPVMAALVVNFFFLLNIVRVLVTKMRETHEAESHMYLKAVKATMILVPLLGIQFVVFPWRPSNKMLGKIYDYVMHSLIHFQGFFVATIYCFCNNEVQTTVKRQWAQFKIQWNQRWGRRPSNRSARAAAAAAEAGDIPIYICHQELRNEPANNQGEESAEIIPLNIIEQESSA
# T2 sequence (looked up) 2: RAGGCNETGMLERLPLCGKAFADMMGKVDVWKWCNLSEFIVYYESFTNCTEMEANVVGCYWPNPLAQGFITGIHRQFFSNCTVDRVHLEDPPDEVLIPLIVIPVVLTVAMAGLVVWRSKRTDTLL
Binder,EC50 (cAMP production) [1] [nM],EC50 (cAMP production) [2] [nM],Ratio (EC50 hCTR / EC50 hAMYR3) [2]
K([γGlu-γGlu-C18 diacid])CNTATCATQRLANFLVHSS[Aib]NFGPILPPTNVGSRTY-NH2 (disulfide 2-7; N-terminus assumed; SMILES CC[C@H](C)[C@H](NC(=O)[C@@H]1CCCN1C(=O)CNC(=O)[C@H](Cc1ccccc1)NC(=O)[C@H](CC(N)=O)NC(=O)C(C)(C)NC(=O)[C@H](CO)NC(=O)[C@H](CO)NC(=O)[C@H](Cc1c[nH]cn1)NC(=O)[C@@H](NC(=O)[C@H](CC(C)C)NC(=O)[C@H](Cc1ccccc1)NC(=O)[C@H](CC(N)=O)NC(=O)[C@H](C)NC(=O)[C@H](CC(C)C)NC(=O)[C@H](CCCNC(=N)N)NC(=O)[C@H](CCC(N)=O)NC(=O)[C@@H](NC(=O)[C@H](C)NC(=O)[C@@H]1CSSC[C@H](NC(=O)[C@@H](N)CCCCNC(=O)CC[C@H](NC(=O)CC[C@H](NC(=O)CCCCCCCCCCCCCCCCC(=O)O)C(=O)O)C(=O)O)C(=O)N[C@@H](CC(N)=O)C(=O)N[C@@H]([C@@H](C)O)C(=O)N[C@@H](C)C(=O)N[C@@H]([C@@H](C)O)C(=O)N1)[C@@H](C)O)C(C)C)C(=O)N[C@@H](CC(C)C)C(=O)N1CCC[C@H]1C(=O)N1CCC[C@H]1C(=O)N[C@H](C(=O)N[C@@H](CC(N)=O)C(=O)N[C@H](C(=O)NCC(=O)N[C@@H](CO)C(=O)N[C@@H](CCCNC(=N)N)C(=O)N[C@H](C(=O)N[C@@H](Cc1ccc(O)cc1)C(N)=O)[C@@H](C)O)C(C)C)[C@@H](C)O) [Peptide 72 (SEQ ID NO: 72)],4,0.227,18
{C18 diacid}-[γGlu]KCNTATCATQRLANFLVHSS[Aib]NFGPILPPTRVGSNTY-NH2 (disulfide 3-8; SMILES CC[C@H](C)[C@H](NC(=O)[C@@H]1CCCN1C(=O)CNC(=O)[C@H](Cc1ccccc1)NC(=O)[C@H](CC(N)=O)NC(=O)C(C)(C)NC(=O)[C@H](CO)NC(=O)[C@H](CO)NC(=O)[C@H](Cc1c[nH]cn1)NC(=O)[C@@H](NC(=O)[C@H](CC(C)C)NC(=O)[C@H](Cc1ccccc1)NC(=O)[C@H](CC(N)=O)NC(=O)[C@H](C)NC(=O)[C@H](CC(C)C)NC(=O)[C@H](CCCNC(=N)N)NC(=O)[C@H](CCC(N)=O)NC(=O)[C@@H](NC(=O)[C@H](C)NC(=O)[C@@H]1CSSC[C@H](NC(=O)[C@H](CCCCN)NC(=O)CC[C@H](NC(=O)CCCCCCCCCCCCCCCCC(=O)O)C(=O)O)C(=O)N[C@@H](CC(N)=O)C(=O)N[C@@H]([C@@H](C)O)C(=O)N[C@@H](C)C(=O)N[C@@H]([C@@H](C)O)C(=O)N1)[C@@H](C)O)C(C)C)C(=O)N[C@@H](CC(C)C)C(=O)N1CCC[C@H]1C(=O)N1CCC[C@H]1C(=O)N[C@H](C(=O)N[C@@H](CCCNC(=N)N)C(=O)N[C@H](C(=O)NCC(=O)N[C@@H](CO)C(=O)N[C@@H](CC(N)=O)C(=O)N[C@H](C(=O)N[C@@H](Cc1ccc(O)cc1)C(N)=O)[C@@H](C)O)C(C)C)[C@@H](C)O) [Peptide 71 (SEQ ID NO: 71)],1.39,0.211,7
K([γGlu-C18 diacid])KCNTATCATQRLANFLVHSS[Aib]NFGPILPPTNVGSRTY-NH2 (disulfide 3-8; N-terminus assumed; SMILES CC[C@H](C)[C@H](NC(=O)[C@@H]1CCCN1C(=O)CNC(=O)[C@H](Cc1ccccc1)NC(=O)[C@H](CC(N)=O)NC(=O)C(C)(C)NC(=O)[C@H](CO)NC(=O)[C@H](CO)NC(=O)[C@H](Cc1c[nH]cn1)NC(=O)[C@@H](NC(=O)[C@H](CC(C)C)NC(=O)[C@H](Cc1ccccc1)NC(=O)[C@H](CC(N)=O)NC(=O)[C@H](C)NC(=O)[C@H](CC(C)C)NC(=O)[C@H](CCCNC(=N)N)NC(=O)[C@H](CCC(N)=O)NC(=O)[C@@H](NC(=O)[C@H](C)NC(=O)[C@@H]1CSSC[C@H](NC(=O)[C@H](CCCCN)NC(=O)[C@@H](N)CCCCNC(=O)CC[C@H](NC(=O)CCCCCCCCCCCCCCCCC(=O)O)C(=O)O)C(=O)N[C@@H](CC(N)=O)C(=O)N[C@@H]([C@@H](C)O)C(=O)N[C@@H](C)C(=O)N[C@@H]([C@@H](C)O)C(=O)N1)[C@@H](C)O)C(C)C)C(=O)N[C@@H](CC(C)C)C(=O)N1CCC[C@H]1C(=O)N1CCC[C@H]1C(=O)N[C@H](C(=O)N[C@@H](CC(N)=O)C(=O)N[C@H](C(=O)NCC(=O)N[C@@H](CO)C(=O)N[C@@H](CCCNC(=N)N)C(=O)N[C@H](C(=O)N[C@@H](Cc1ccc(O)cc1)C(N)=O)[C@@H](C)O)C(C)C)[C@@H](C)O) [Peptide 73 (SEQ ID NO: 73)],1.82,0.256,7
K([γGlu-γGlu-C18 diacid])KCNTATCATQRLANFLVHSS[Aib]NFGPILPPTRVGSNTY-NH2 (disulfide 3-8; N-terminus assumed; SMILES CC[C@H](C)[C@H](NC(=O)[C@@H]1CCCN1C(=O)CNC(=O)[C@H](Cc1ccccc1)NC(=O)[C@H](CC(N)=O)NC(=O)C(C)(C)NC(=O)[C@H](CO)NC(=O)[C@H](CO)NC(=O)[C@H](Cc1c[nH]cn1)NC(=O)[C@@H](NC(=O)[C@H](CC(C)C)NC(=O)[C@H](Cc1ccccc1)NC(=O)[C@H](CC(N)=O)NC(=O)[C@H](C)NC(=O)[C@H](CC(C)C)NC(=O)[C@H](CCCNC(=N)N)NC(=O)[C@H](CCC(N)=O)NC(=O)[C@@H](NC(=O)[C@H](C)NC(=O)[C@@H]1CSSC[C@H](NC(=O)[C@H](CCCCN)NC(=O)[C@@H](N)CCCCNC(=O)CC[C@H](NC(=O)CC[C@H](NC(=O)CCCCCCCCCCCCCCCCC(=O)O)C(=O)O)C(=O)O)C(=O)N[C@@H](CC(N)=O)C(=O)N[C@@H]([C@@H](C)O)C(=O)N[C@@H](C)C(=O)N[C@@H]([C@@H](C)O)C(=O)N1)[C@@H](C)O)C(C)C)C(=O)N[C@@H](CC(C)C)C(=O)N1CCC[C@H]1C(=O)N1CCC[C@H]1C(=O)N[C@H](C(=O)N[C@@H](CCCNC(=N)N)C(=O)N[C@H](C(=O)NCC(=O)N[C@@H](CO)C(=O)N[C@@H](CC(N)=O)C(=O)N[C@H](C(=O)N[C@@H](Cc1ccc(O)cc1)C(N)=O)[C@@H](C)O)C(C)C)[C@@H](C)O) [Peptide 70 (SEQ ID NO: 70)],5.41,0.235,23
K([γGlu-γGlu-C18 diacid])KCNTATCATQRLANFLVHSS[Aib]NFGPILPPTNVGSRTY-NH2 (disulfide 3-8; N-terminus assumed; SMILES CC[C@H](C)[C@H](NC(=O)[C@@H]1CCCN1C(=O)CNC(=O)[C@H](Cc1ccccc1)NC(=O)[C@H](CC(N)=O)NC(=O)C(C)(C)NC(=O)[C@H](CO)NC(=O)[C@H](CO)NC(=O)[C@H](Cc1c[nH]cn1)NC(=O)[C@@H](NC(=O)[C@H](CC(C)C)NC(=O)[C@H](Cc1ccccc1)NC(=O)[C@H](CC(N)=O)NC(=O)[C@H](C)NC(=O)[C@H](CC(C)C)NC(=O)[C@H](CCCNC(=N)N)NC(=O)[C@H](CCC(N)=O)NC(=O)[C@@H](NC(=O)[C@H](C)NC(=O)[C@@H]1CSSC[C@H](NC(=O)[C@H](CCCCN)NC(=O)[C@@H](N)CCCCNC(=O)CC[C@H](NC(=O)CC[C@H](NC(=O)CCCCCCCCCCCCCCCCC(=O)O)C(=O)O)C(=O)O)C(=O)N[C@@H](CC(N)=O)C(=O)N[C@@H]([C@@H](C)O)C(=O)N[C@@H](C)C(=O)N[C@@H]([C@@H](C)O)C(=O)N1)[C@@H](C)O)C(C)C)C(=O)N[C@@H](CC(C)C)C(=O)N1CCC[C@H]1C(=O)N1CCC[C@H]1C(=O)N[C@H](C(=O)N[C@@H](CC(N)=O)C(=O)N[C@H](C(=O)NCC(=O)N[C@@H](CO)C(=O)N[C@@H](CCCNC(=N)N)C(=O)N[C@H](C(=O)N[C@@H](Cc1ccc(O)cc1)C(N)=O)[C@@H](C)O)C(C)C)[C@@H](C)O) [Peptide 74 (SEQ ID NO: 74)],4.57,0.356,13
K([γGlu-γGlu-C18 diacid])CNTATCATQRLANFLRHSS[Aib]NFGPILPPTNVGSNTY-NH2 (disulfide 2-7; N-terminus assumed; SMILES CC[C@H](C)[C@H](NC(=O)[C@@H]1CCCN1C(=O)CNC(=O)[C@H](Cc1ccccc1)NC(=O)[C@H](CC(N)=O)NC(=O)C(C)(C)NC(=O)[C@H](CO)NC(=O)[C@H](CO)NC(=O)[C@H](Cc1c[nH]cn1)NC(=O)[C@H](CCCNC(=N)N)NC(=O)[C@H](CC(C)C)NC(=O)[C@H](Cc1ccccc1)NC(=O)[C@H](CC(N)=O)NC(=O)[C@H](C)NC(=O)[C@H](CC(C)C)NC(=O)[C@H](CCCNC(=N)N)NC(=O)[C@H](CCC(N)=O)NC(=O)[C@@H](NC(=O)[C@H](C)NC(=O)[C@@H]1CSSC[C@H](NC(=O)[C@@H](N)CCCCNC(=O)CC[C@H](NC(=O)CC[C@H](NC(=O)CCCCCCCCCCCCCCCCC(=O)O)C(=O)O)C(=O)O)C(=O)N[C@@H](CC(N)=O)C(=O)N[C@@H]([C@@H](C)O)C(=O)N[C@@H](C)C(=O)N[C@@H]([C@@H](C)O)C(=O)N1)[C@@H](C)O)C(=O)N[C@@H](CC(C)C)C(=O)N1CCC[C@H]1C(=O)N1CCC[C@H]1C(=O)N[C@H](C(=O)N[C@@H](CC(N)=O)C(=O)N[C@H](C(=O)NCC(=O)N[C@@H](CO)C(=O)N[C@@H](CC(N)=O)C(=O)N[C@H](C(=O)N[C@@H](Cc1ccc(O)cc1)C(N)=O)[C@@H](C)O)C(C)C)[C@@H](C)O) [Peptide 75 (SEQ ID NO: 75)],16,0.161,99
